This is an account of results in patent US20200270325A1 (Merck Sharp & Dohme, published 2020).

Test [1] deals with human GLP-1 receptor (GLP1R) (human, UniProt P43220 24-463). Briefly: cell-based or functional assay.
For test [2], the target named is human Glucagon receptor (GCGR) (human, UniProt P47871 26-477). In words: cell-based or functional assay.

Numbered stars: 1 amine (or outer) side, 2 acyl side, 3 side chain; on linkers, the order of the positions; unused ones are H or OH. Square brackets hold non-standard residues; d marks the D form. Side chains are listed from the residue outwards. Ends that are not written are not given here. * marks the point of attachment. Phe(4-CH2NH2) = NCc1ccc(C[C@H](N)C(=O)O)cc1; C18 diacid = O=C(O)CCCCCCCCCCCCCCCCC(=O)*; C16 diacid = O=C(O)CCCCCCCCCCCCCCC(=O)*; γGlu = O=C(O)[C@H](CCC(=O)[*:2])N[*:1]; Met(O2) = CS(=O)(=O)CC[C@H](N)C(=O)O; αMeD = C[C@](N)(CC(=O)O)C(=O)O; AEEA = NCCOCCOCC(=O)O; Aib = CC(C)(N)C(=O)O

Chain of human Glucagon receptor (GCGR) (P47871 26-477): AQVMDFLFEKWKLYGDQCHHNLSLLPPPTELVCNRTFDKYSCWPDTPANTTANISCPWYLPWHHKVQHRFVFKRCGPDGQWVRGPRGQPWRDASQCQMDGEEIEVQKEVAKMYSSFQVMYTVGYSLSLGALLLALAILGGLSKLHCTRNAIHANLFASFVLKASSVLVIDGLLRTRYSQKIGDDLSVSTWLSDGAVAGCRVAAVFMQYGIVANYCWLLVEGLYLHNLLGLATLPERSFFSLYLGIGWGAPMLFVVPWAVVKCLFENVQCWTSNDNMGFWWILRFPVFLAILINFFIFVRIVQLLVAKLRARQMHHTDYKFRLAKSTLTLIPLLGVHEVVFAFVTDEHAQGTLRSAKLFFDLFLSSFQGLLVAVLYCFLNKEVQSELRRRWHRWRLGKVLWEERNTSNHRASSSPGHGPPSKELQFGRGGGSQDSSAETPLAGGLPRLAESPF

B1: TP667 (peptide)
peptide: H[Aib]QGTFTSDYSKYLD[Aib]RAAQFVQ[Phe(4-CH2NH2)]([AEEA-AEEA-γGlu-C16 diacid])WLLATK-{γGlu-NH2}
As to B1, the “GLP1R EC50 human” value in test [1] was more than 19.8 nM. In test [2], the “GCGR EC50 human” value was more than 19.8 nM.

B2: TP581 (peptide)
peptide: H[Aib]QGTFTSD[Phe(4-CH2NH2)]([AEEA-AEEA-γGlu-C20‑OH])SKYLD[Aib]RAAQDFVQWLLATK-{γGlu-NH2}
Take B2: the “GLP1R EC50 human” value in test [1] worked out at 1.69 nM. For the same molecule, the “GCGR EC50 human” value in test [2] stood at 4.95 nM.

B3: TP674 (peptide)
peptide: H[Aib]QGTFTSDYSKYLEARAAK([AEEA-AEEA-γGlu-C18 diacid])DFVQWL[Met(O2)]DT-NH2
modifications: N-terminus assumed
SMILES: CC(C)C[C@H](NC(=O)[C@H](Cc1ccc(O)cc1)NC(=O)[C@H](CCCCN)NC(=O)[C@H](CO)NC(=O)[C@H](Cc1ccc(O)cc1)NC(=O)[C@H](CC(=O)O)NC(=O)[C@H](CO)NC(=O)[C@@H](NC(=O)[C@H](Cc1ccccc1)NC(=O)[C@@H](NC(=O)CNC(=O)[C@H](CCC(N)=O)NC(=O)C(C)(C)NC(=O)[C@@H](N)Cc1c[nH]cn1)[C@@H](C)O)[C@@H](C)O)C(=O)N[C@@H](CCC(=O)O)C(=O)N[C@@H](C)C(=O)N[C@@H](CCCNC(=N)N)C(=O)N[C@@H](C)C(=O)N[C@@H](C)C(=O)N[C@@H](CCCCNC(=O)COCCOCCNC(=O)COCCOCCNC(=O)CC[C@H](NC(=O)CCCCCCCCCCCCCCCCC(=O)O)C(=O)O)C(=O)N[C@@H](CC(=O)O)C(=O)N[C@@H](Cc1ccccc1)C(=O)N[C@H](C(=O)N[C@@H](CCC(N)=O)C(=O)N[C@@H](Cc1c[nH]c2ccccc12)C(=O)N[C@@H](CC(C)C)C(=O)N[C@@H](CCS(C)(=O)=O)C(=O)N[C@@H](CC(=O)O)C(=O)N[C@H](C(N)=O)[C@@H](C)O)C(C)C
In the case of B3, in test [1], the “GLP1R EC50 human” value stood at 0.45 nM. Further, the “GCGR EC50 human” value in test [2] was found to be 1.08 nM.

B4: TP676 (peptide)
peptide: H[Aib]QGTFTSDYSKYLDARAAK([AEEA-AEEA-AEEA-γGlu-C18 diacid])DFVQWL[Met(O2)]DT-NH2
modifications: N-terminus assumed
SMILES: CC(C)C[C@H](NC(=O)[C@H](Cc1ccc(O)cc1)NC(=O)[C@H](CCCCN)NC(=O)[C@H](CO)NC(=O)[C@H](Cc1ccc(O)cc1)NC(=O)[C@H](CC(=O)O)NC(=O)[C@H](CO)NC(=O)[C@@H](NC(=O)[C@H](Cc1ccccc1)NC(=O)[C@@H](NC(=O)CNC(=O)[C@H](CCC(N)=O)NC(=O)C(C)(C)NC(=O)[C@@H](N)Cc1c[nH]cn1)[C@@H](C)O)[C@@H](C)O)C(=O)N[C@@H](CC(=O)O)C(=O)N[C@@H](C)C(=O)N[C@@H](CCCNC(=N)N)C(=O)N[C@@H](C)C(=O)N[C@@H](C)C(=O)N[C@@H](CCCCNC(=O)COCCOCCNC(=O)COCCOCCNC(=O)COCCOCCNC(=O)CC[C@H](NC(=O)CCCCCCCCCCCCCCCCC(=O)O)C(=O)O)C(=O)N[C@@H](CC(=O)O)C(=O)N[C@@H](Cc1ccccc1)C(=O)N[C@H](C(=O)N[C@@H](CCC(N)=O)C(=O)N[C@@H](Cc1c[nH]c2ccccc12)C(=O)N[C@@H](CC(C)C)C(=O)N[C@@H](CCS(C)(=O)=O)C(=O)N[C@@H](CC(=O)O)C(=O)N[C@H](C(N)=O)[C@@H](C)O)C(C)C
Turning to B4, in test [1], the “GLP1R EC50 human” value was found to be 0.26 nM. In test [2], the “GCGR EC50 human” value was found to be 0.82 nM.

B5: TP675 (peptide)
peptide: H[Aib]QGTFTSDYSKYLD[Aib]RAAQDFVK([AEEA-AEEA-γGlu-C18 diacid])WL[Met(O2)]ET-NH2
modifications: N-terminus assumed
SMILES: CC(C)C[C@H](NC(=O)[C@H](Cc1c[nH]c2ccccc12)NC(=O)[C@H](CCCCNC(=O)COCCOCCNC(=O)COCCOCCNC(=O)CC[C@H](NC(=O)CCCCCCCCCCCCCCCCC(=O)O)C(=O)O)NC(=O)[C@@H](NC(=O)[C@H](Cc1ccccc1)NC(=O)[C@H](CC(=O)O)NC(=O)[C@H](CCC(N)=O)NC(=O)[C@H](C)NC(=O)[C@H](C)NC(=O)[C@H](CCCNC(=N)N)NC(=O)C(C)(C)NC(=O)[C@H](CC(=O)O)NC(=O)[C@H](CC(C)C)NC(=O)[C@H](Cc1ccc(O)cc1)NC(=O)[C@H](CCCCN)NC(=O)[C@H](CO)NC(=O)[C@H](Cc1ccc(O)cc1)NC(=O)[C@H](CC(=O)O)NC(=O)[C@H](CO)NC(=O)[C@@H](NC(=O)[C@H](Cc1ccccc1)NC(=O)[C@@H](NC(=O)CNC(=O)[C@H](CCC(N)=O)NC(=O)C(C)(C)NC(=O)[C@@H](N)Cc1c[nH]cn1)[C@@H](C)O)[C@@H](C)O)C(C)C)C(=O)N[C@@H](CCS(C)(=O)=O)C(=O)N[C@@H](CCC(=O)O)C(=O)N[C@H](C(N)=O)[C@@H](C)O
B5: in test [1], the “GLP1R EC50 human” value was 0.71 nM. In addition, in test [2], the “GCGR EC50 human” value came to 0.3 nM.

B6: TP672 (peptide)
peptide: H[Aib]QGTFTSDYSKYLDARAAK([AEEA-AEEA-γGlu-C18 diacid])DFVQWL[Met(O2)]ET-NH2
modifications: N-terminus assumed
SMILES: CC(C)C[C@H](NC(=O)[C@H](Cc1ccc(O)cc1)NC(=O)[C@H](CCCCN)NC(=O)[C@H](CO)NC(=O)[C@H](Cc1ccc(O)cc1)NC(=O)[C@H](CC(=O)O)NC(=O)[C@H](CO)NC(=O)[C@@H](NC(=O)[C@H](Cc1ccccc1)NC(=O)[C@@H](NC(=O)CNC(=O)[C@H](CCC(N)=O)NC(=O)C(C)(C)NC(=O)[C@@H](N)Cc1c[nH]cn1)[C@@H](C)O)[C@@H](C)O)C(=O)N[C@@H](CC(=O)O)C(=O)N[C@@H](C)C(=O)N[C@@H](CCCNC(=N)N)C(=O)N[C@@H](C)C(=O)N[C@@H](C)C(=O)N[C@@H](CCCCNC(=O)COCCOCCNC(=O)COCCOCCNC(=O)CC[C@H](NC(=O)CCCCCCCCCCCCCCCCC(=O)O)C(=O)O)C(=O)N[C@@H](CC(=O)O)C(=O)N[C@@H](Cc1ccccc1)C(=O)N[C@H](C(=O)N[C@@H](CCC(N)=O)C(=O)N[C@@H](Cc1c[nH]c2ccccc12)C(=O)N[C@@H](CC(C)C)C(=O)N[C@@H](CCS(C)(=O)=O)C(=O)N[C@@H](CCC(=O)O)C(=O)N[C@H](C(N)=O)[C@@H](C)O)C(C)C
Consider B6, for which the “GLP1R EC50 human” value in test [1] worked out at 0.51 nM. In test [2], the “GCGR EC50 human” value came out at 0.35 nM.

B7: TP673 (peptide)
peptide: H[Aib]QGTFTSDYSKYLD[Aib]RAAK([AEEA-AEEA-γGlu-C18 diacid])DFVQWL[Met(O2)]ET-NH2
modifications: N-terminus assumed
SMILES: CC(C)C[C@H](NC(=O)[C@H](Cc1c[nH]c2ccccc12)NC(=O)[C@H](CCC(N)=O)NC(=O)[C@@H](NC(=O)[C@H](Cc1ccccc1)NC(=O)[C@H](CC(=O)O)NC(=O)[C@H](CCCCNC(=O)COCCOCCNC(=O)COCCOCCNC(=O)CC[C@H](NC(=O)CCCCCCCCCCCCCCCCC(=O)O)C(=O)O)NC(=O)[C@H](C)NC(=O)[C@H](C)NC(=O)[C@H](CCCNC(=N)N)NC(=O)C(C)(C)NC(=O)[C@H](CC(=O)O)NC(=O)[C@H](CC(C)C)NC(=O)[C@H](Cc1ccc(O)cc1)NC(=O)[C@H](CCCCN)NC(=O)[C@H](CO)NC(=O)[C@H](Cc1ccc(O)cc1)NC(=O)[C@H](CC(=O)O)NC(=O)[C@H](CO)NC(=O)[C@@H](NC(=O)[C@H](Cc1ccccc1)NC(=O)[C@@H](NC(=O)CNC(=O)[C@H](CCC(N)=O)NC(=O)C(C)(C)NC(=O)[C@@H](N)Cc1c[nH]cn1)[C@@H](C)O)[C@@H](C)O)C(C)C)C(=O)N[C@@H](CCS(C)(=O)=O)C(=O)N[C@@H](CCC(=O)O)C(=O)N[C@H](C(N)=O)[C@@H](C)O
As to B7, the “GLP1R EC50 human” value in test [1] turned out to be 0.67 nM. The “GCGR EC50 human” value in test [2] worked out at 0.22 nM.

B8: TP665 (peptide)
peptide: H[Aib]QGTFTSDYSKYLD[Aib]RAAQ[Phe(4-CH2NH2)]([AEEA-AEEA-γGlu-C16 diacid])FVQWLLATK-{γGlu-NH2}
Take B8: the “GLP1R EC50 human” value in test [1] is 1.6 nM. The “GCGR EC50 human” value in test [2] amounted to 0.79 nM.

B9: TP677 (peptide)
peptide: H[Aib]QGTFTSDYSKYLDARAAK([AEEA-AEEA-AEEA-γGlu-C18 diacid])DFVQWL[Met(O2)][αMeD]T-NH2
modifications: N-terminus assumed
SMILES: CC(C)C[C@H](NC(=O)[C@H](Cc1ccc(O)cc1)NC(=O)[C@H](CCCCN)NC(=O)[C@H](CO)NC(=O)[C@H](Cc1ccc(O)cc1)NC(=O)[C@H](CC(=O)O)NC(=O)[C@H](CO)NC(=O)[C@@H](NC(=O)[C@H](Cc1ccccc1)NC(=O)[C@@H](NC(=O)CNC(=O)[C@H](CCC(N)=O)NC(=O)C(C)(C)NC(=O)[C@@H](N)Cc1c[nH]cn1)[C@@H](C)O)[C@@H](C)O)C(=O)N[C@@H](CC(=O)O)C(=O)N[C@@H](C)C(=O)N[C@@H](CCCNC(=N)N)C(=O)N[C@@H](C)C(=O)N[C@@H](C)C(=O)N[C@@H](CCCCNC(=O)COCCOCCNC(=O)COCCOCCNC(=O)COCCOCCNC(=O)CC[C@H](NC(=O)CCCCCCCCCCCCCCCCC(=O)O)C(=O)O)C(=O)N[C@@H](CC(=O)O)C(=O)N[C@@H](Cc1ccccc1)C(=O)N[C@H](C(=O)N[C@@H](CCC(N)=O)C(=O)N[C@@H](Cc1c[nH]c2ccccc12)C(=O)N[C@@H](CC(C)C)C(=O)N[C@@H](CCS(C)(=O)=O)C(=O)N[C@@](C)(CC(=O)O)C(=O)N[C@H](C(N)=O)[C@@H](C)O)C(C)C
As to B9, the “GLP1R EC50 human” value in test [1] stood at 0.76 nM. In test [2], the “GCGR EC50 human” value was determined as 1.42 nM.

B10: TP663 (peptide)
peptide: H[Aib]QGTFTSDYSKYLD[Aib]RAA[Phe(4-CH2NH2)]([AEEA-AEEA-γGlu-C16 diacid])DFVQWLLATK-{γGlu-NH2}
With B10, the “GLP1R EC50 human” value in test [1] came out at 0.38 nM. Besides, the “GCGR EC50 human” value in test [2] came out at 0.22 nM.

B11: TP582 (peptide)
peptide: H[Aib]QGTFTSD[Phe(4-CH2NH2)]([AEEA-AEEA-γGlu-C20‑OH])SKYLD[Aib]RAAQDFVQWLLATK-{γGlu-NH2}
B11: in test [1], the “GLP1R EC50 human” value is 2.57 nM. Also, the “GCGR EC50 human” value in test [2] amounted to 4.95 nM.

B12: TP666 (peptide)
peptide: H[Aib]QGTFTSDYSKYLD[Aib]RAAQFVQK([AEEA-AEEA-γGlu-C16 diacid])WLLATK-{γGlu-NH2}
As for B12, in test [1], the “GLP1R EC50 human” value is more than 19.8 nM. Moreover, in test [2], the “GCGR EC50 human” value was more than 19.8 nM.
